Data set [1] is described as follows: in vitro. Particulars: human, plasma, pH 7.4.
Description: (§1) Pooled frozen plasma was thawed in a water bath at 37° C. Plasma was centrifuged at 4000 rpm for 5 min and the clots were removed if any. The pH will be adjusted to 7.4±0.1 if required. 1 mM stock solution was prepared with DMSO. Propantheline (positive control) was prepared by making a 100 μM working solution by diluting 5 μL of the stock solution (10 mM) with 495 μL ultra pure water. 100 μM working solutions of test compounds were made up by diluting 10 μL of the stock solution (1 mM) with 90 μL DMSO. 98 μL of blank plasma was spiked with 2 μL of dosing solution (100 μM) to achieve 2 μM of the final concentration in duplicate and samples were incubated at 37° C. in a water bath. At each time point (0, 1, 2, 4, 6 and 24 hr), 400 μL of 200 ng/mL tolbutamide and labetalol in 100% MeOH was added and mixed thoroughly to precipitate proteins. Sample plates were centrifuged at 4,000 rpm for 15 min. An aliquot of supernatant (150 μL) was transferred from each well before submitting for LC-MS/MS analysis.
(§2) The appointed incubation time points are T0 (0 hr), Tn (n=0, 1, 2, 4, 6, 24 hr). The half-life (T½) was calculated from a log linear plot of concentration versus time.
(§3) When the % remaining value at the maximal incubation time, which was 24 hr in this study, was higher than 75%, it is considered to be within the acceptable experimental variation.
The nature of data set [2]: in vitro. As to conditions: rat, plasma, pH 7.4.
Description: as §1, §2, §3
The target in data set [3] is Cathepsin B (Homo sapiens, UniProt P07858). Kind of data set: Cathepsin B (CatB) cleavage assay. It counts as biochemical. Particulars: BTCs; for half-life at 40 μM: read-out: CatB t1/2 (converted). As to the method: 15 μL of test compound solution (2 mM in DMSO) was added to the incubation plate in duplicate. 30 μL of Cathepsin B stock solution (16 μM) was pre-activated with 1500 μL activation buffer for 10 min at room temperature. The Cathepsin B solution was diluted in 13.17 mL water, then 735 μL activatived enzyme mixture was added to the incubation plate. The mixture was incubated at 37° C. in a waterbath. […] The samples were mixed and centrifuged at 4000 rpm for 20 min. 50 μL of supernatant was taken into a new plate containing 150 μL ultra-pure water and the samples mixed thoroughly before submitting to LC-MS/MS analysis.

The nature of data set [4]: Plasma stability analysis, mouse plasma. Particulars: plasma, BTCs. On the procedure: Pooled frozen plasma was thawed in a water bath at 37° C. Plasma was centrifuged at 4000 rpm for 5 min and the clots were removed if any. The pH will be adjusted to 7.4±0.1 if required. 1 mM stock solution was prepared with DMSO. Propantheline (positive control) was prepared by making a 100 μM working solution by diluting 5 μL of the stock solution (10 mM) with 495 μL ultra pure water. 100 μM working solutions of test compounds were made up by diluting 10 μL of the stock solution (1 mM) with 90 μL DMSO. 98 μL of blank plasma was spiked with 2 μL of dosing solution (100 μM) to achieve 2 μM of the final concentration in duplicate and samples were incubated at 37° C. in a water bath. […] An aliquot of supernatant (150 μL) was transferred from each well before submitting for LC-MS/MS analysis.
The % remaining test compound after incubation in plasma was calculated using following equation: Remaining=100×(PAR at appointed incubation time/PAR at T0 time)
where PAR is the peak area ratio of analyte versus internal standard (IS).
The half-life (T½) was calculated from a log linear plot of concentration versus time.

Data set [5] in a line: in vivo. Particulars: male, CD-1, mouse, plasma, intravenous.
Description: Male CD-1 mice were dosed with each Bicycle Conjugate formulated in 25 mM histidine HCl, 10% sucrose pH 7 via tail vein injection. Serial bleeding (about 80 μL blood/time point) was performed via submadibular or saphenous vein at each time point. All blood samples were immediately transferred into prechilled microcentrifuge tubes containing 2 μL K2-EDTA (0.5M) as anti-coagulant and placed on wet ice. Blood samples were immediately processed for plasma by centrifugation at approximately 4° C., 3000 g. The precipitant including internal standard (350 μL) was immediately added into the 35 μL plasma sample, mixed well and centrifuged at 3220 g, 4° C. for 15 minutes. The supernatant was transferred into pre-labeled polypropylene microcentrifuge tubes, and then quick-frozen over dry ice. The samples were stored at 70° C. or below as needed until analysis. Supernatant samples were mixed with 50 μL water, vortexed well and centrifuged at 3220 g, 4° C. for 15 minutes. A sample of the supernatant was injected for LC-MS/MS analysis using an Acquity UPLC with AB Sciex 6500+ Triple Quad MS in positive ion mode to determine the concentrations of Bicycle Conjugate and released payload. Plasma concentration versus time data were analyzed by non-compartmental approaches using the Phoenix WinNonlin 6.3 software program. C0, Cl, Vdss, T1/2, AUC(0-inf), MRT(0-last), MRT(0-inf) nd graphs of plasma concentration versus time profile were reported.
Data set [6] in a line: in vitro. As to conditions: mouse, plasma.
Data set [7] can be described thus: in vitro. Particulars: rat, plasma, Plasma protein binding (% Unbound) Rat.
The nature of data set [8]: in vitro. As to conditions: human, plasma.
Data set [9] in a line: in vitro. Particulars: cynomolgus monkey, plasma.
Setting [10] is: pH 7.4, Mouse plasma t1/2 (EDTA), EDTA anticoagulant.
[11] abbreviates: pH 7.4, Mouse plasma t1/2 (Herparin), heparin anticoagulant.

This is an account of results in patent publication US12540161B2, “Linkers” (BicycleTx Limited, priority 2020, dated 2026).

By Vd is commonly meant the apparent volume that relates the amount in the body to the concentration in plasma or blood. High values mean extensive tissue distribution, low ones confinement near the circulation. In general, clearance refers to the rate of elimination divided by the concentration. Low readings indicate inefficient removal, high ones efficient removal. What is called fraction unbound is the share of the substance not bound to proteins or other matrix. Read a high fraction unbound as weak binding.

In data set [1], `CC[C@H](C)[C@@H]([C@@H](CC(=O)N1CCC[C@H]1[C@H](OC)[C@@H](C)C(=O)N[C@H](C)[C@@H](O)c1ccccc1)OC)N(C)C(=O)[C@@H](NC(=O)[C@H](C(C)C)N(C)C(=O)OCc1ccc(NC(=O)[C@H](CCCNC(N)=O)NC(=O)[C@@H](NC(=O)[C@H](CCC(=O)O)NC(=O)Cn2cc(CCC(=O)NCCC(=O)N(C)CC(=O)N(C)CC(=O)N(C)CC(=O)N(C)CC(=O)N(C)CC(=O)N(C)CC(=O)N(C)CC(=O)N(C)CC(=O)N(C)CC(=O)N(C)CC(=O)N[C@@H](C)C(=O)N[C@H]3CN(C)Cc4cc5cc(c4)CN(C)C[C@@H](C(N)=O)NC(=O)[C@H](C(C)(C)C)NC(=O)[C@H](CC(=O)O)NC(=O)[C@H](Cc4ccc(O)cc4)NC(=O)[C@H](Cc4ccccc4)NC(=O)[C@H](CC(=O)O)NC(=O)[C@H](CCC(=O)O)NC(=O)[C@H](CSC5)NC(=O)[C@@H](C)NC(=O)[C@H](Cc4cccc5ccccc45)NC(=O)[C@H](CCC(=O)O)NC(=O)[C@H](CC(N)=O)NC(=O)[C@@H](C)NC3=O)nn2)C(C)C)cc1)C(C)C` [BCY10980, MMAE-PAB-(Cit-Val-Glu)-BCY3900] showed a half-life at 2 μM of 40 h. Also, the half-life at 2 μM in data set [2] is over 57.8 h. In data set [3], the “% Parent remaining after incubation with CatB, 0 h” value (shortened to “% Parent remaining … 0 h”) turned out to be 100%; the “% Parent remaining after incubation with CatB, 1 h” value (shortened to “% Parent remaining … 1 h”) turned out to be 0%; the “% Parent remaining after incubation with CatB, 2 h” value (shortened to “% Parent remaining … 2 h”) amounted to 0%; the “% Parent remaining after incubation with CatB, 4 h” value (shortened to “% Parent remaining … with CatB, 4 h”) amounted to 0%. Moreover, in data set [3], the “% Parent remaining after incubation with CatB, 6 h” value (shortened to “% Parent remaining … 6 h”) is 0%; the “% Parent remaining after incubation with CatB, 24 h” value (shortened to “% Parent remaining … 24 h”) turned out to be 0%; the half-life at 40 μM is under 0.2 h. This molecule gave a half-life at 2 μM in data set [4] (setting [10]) of over 57.8 h. The same molecule had a half-life at 2 μM in data set [4] (setting [11]) of over 57.8 h. Besides, in data set [5], the C0 was determined as 40.2 µg/mL, the distribution volume (Vd) worked out at 0.2 L/kg, the clearance was found to be 0.288 L/h/kg and the half-life is 0.64 h. Also, the unbound share (fraction unbound) in data set [6] stood at 0.187.
In data set [7], `CC[C@H](C)[C@@H]([C@@H](CC(=O)N1CCC[C@H]1[C@H](OC)[C@@H](C)C(=O)N[C@H](C)[C@@H](O)c1ccccc1)OC)N(C)C(=O)[C@@H](NC(=O)[C@H](C(C)C)N(C)C(=O)OCc1ccc(NC(=O)[C@H](CCN)NC(=O)[C@H](Cc2ccc3ccccc3c2)NC(=O)[C@H](CCC(=O)O)NC(=O)Cn2cc(CCC(=O)NCCC(=O)N(C)CC(=O)N(C)CC(=O)N(C)CC(=O)N(C)CC(=O)N(C)CC(=O)N(C)CC(=O)N(C)CC(=O)N(C)CC(=O)N(C)CC(=O)N(C)CC(=O)N[C@@H](C)C(=O)N[C@H]3CN(C)Cc4cc5cc(c4)CN(C)C[C@@H](C(N)=O)NC(=O)[C@H](C(C)(C)C)NC(=O)[C@H](CC(=O)O)NC(=O)[C@H](Cc4ccc(O)cc4)NC(=O)[C@H](Cc4ccccc4)NC(=O)[C@H](CC(=O)O)NC(=O)[C@H](CCC(=O)O)NC(=O)[C@H](CSC5)NC(=O)[C@@H](C)NC(=O)[C@H](Cc4cccc5ccccc45)NC(=O)[C@H](CCC(=O)O)NC(=O)[C@H](CC(N)=O)NC(=O)[C@@H](C)NC3=O)nn2)cc1)C(C)C` [BCY10986, MMAE-PAB-(Dab-2Nal-Glu)-BCY3900] returned a fraction unbound of 0.115. Besides, in [3], the “% Parent remaining … 0 h” value came to 100%; the “% Parent remaining … 1 h” value came out at 9.7346%; the “% Parent remaining … 2 h” value is recorded as 0%; the “% Parent remaining … with CatB, 4 h” value is 0%. In data set [3], the “% Parent remaining … 6 h” value worked out at 0%; the “% Parent remaining … 24 h” value came to 0%; the half-life at 40 μM is 0.3 h. Moreover, the half-life at 2 μM in [4] (setting [10]) is 50.1 h. In data set [6], this molecule yielded an unbound share (fraction unbound) of 0.071.
In data set [1], `CC[C@H](C)[C@@H]([C@@H](CC(=O)N1CCC[C@H]1[C@H](OC)[C@@H](C)C(=O)N[C@H](C)[C@@H](O)c1ccccc1)OC)N(C)C(=O)[C@@H](NC(=O)[C@H](C(C)C)N(C)C(=O)OCc1ccc(NC(=O)[C@H](CCN)NC(=O)[C@H](Cc2cccc3ccccc23)NC(=O)[C@H](CCC(=O)O)NC(=O)Cn2cc(CCC(=O)NCCC(=O)N(C)CC(=O)N(C)CC(=O)N(C)CC(=O)N(C)CC(=O)N(C)CC(=O)N(C)CC(=O)N(C)CC(=O)N(C)CC(=O)N(C)CC(=O)N(C)CC(=O)N[C@@H](C)C(=O)N[C@H]3CN(C)Cc4cc5cc(c4)CN(C)C[C@@H](C(N)=O)NC(=O)[C@H](C(C)(C)C)NC(=O)[C@H](CC(=O)O)NC(=O)[C@H](Cc4ccc(O)cc4)NC(=O)[C@H](Cc4ccccc4)NC(=O)[C@H](CC(=O)O)NC(=O)[C@H](CCC(=O)O)NC(=O)[C@H](CSC5)NC(=O)[C@@H](C)NC(=O)[C@H](Cc4cccc5ccccc45)NC(=O)[C@H](CCC(=O)O)NC(=O)[C@H](CC(N)=O)NC(=O)[C@@H](C)NC3=O)nn2)cc1)C(C)C` [BCY10985, MMAE-PAB-(Dab-1Nal-Glu)-BCY3900] yielded a half-life at 2 μM of over 57.8 h. The molecule also came in with a half-life at 2 μM in data set [2] of over 57.8 h. Also, in [3], the “% Parent remaining … 0 h” value is on record as 100%; the “% Parent remaining … 1 h” value is reported as 103.62%; the “% Parent remaining … 2 h” value worked out at 94.8%; the “% Parent remaining … with CatB, 4 h” value was determined as 107%. In [3], the “% Parent remaining … 6 h” value turned out to be 92.2%; the “% Parent remaining … 24 h” value amounted to 86.82%; the half-life at 40 μM is over 57.8 h. The molecule also gave a half-life at 2 μM in data set [4] (setting [10]) of over 57.8 h. The half-life at 2 μM in [4] (setting [11]) is over 57.8 h. This molecule yielded a fraction unbound in [8] of 0.234. In data set [5], the C0 worked out at 26.4 µg/mL, the Vd is 0.18 L/kg, the clearance was determined as 0.06 L/h/kg and the half-life was 2.48 h. In data set [6], the fraction unbound was determined as 0.048.
Regarding `CC[C@H](C)[C@@H]([C@@H](CC(=O)N1CCC[C@H]1[C@H](OC)[C@@H](C)C(=O)N[C@H](C)[C@@H](O)c1ccccc1)OC)N(C)C(=O)[C@@H](NC(=O)[C@H](C(C)C)N(C)C(=O)OCc1ccc(NC(=O)[C@H](CCN)NC(=O)[C@@H](NC(=O)[C@H](CCC(=O)O)NC(=O)Cn2cc(CCC(=O)NCCC(=O)N(C)CC(=O)N(C)CC(=O)N(C)CC(=O)N(C)CC(=O)N(C)CC(=O)N(C)CC(=O)N(C)CC(=O)N(C)CC(=O)N(C)CC(=O)N(C)CC(=O)N[C@@H](C)C(=O)N[C@H]3CN(C)Cc4cc5cc(c4)CN(C)C[C@@H](C(N)=O)NC(=O)[C@H](C(C)(C)C)NC(=O)[C@H](CC(=O)O)NC(=O)[C@H](Cc4ccc(O)cc4)NC(=O)[C@H](Cc4ccccc4)NC(=O)[C@H](CC(=O)O)NC(=O)[C@H](CCC(=O)O)NC(=O)[C@H](CSC5)NC(=O)[C@@H](C)NC(=O)[C@H](Cc4cccc5ccccc45)NC(=O)[C@H](CCC(=O)O)NC(=O)[C@H](CC(N)=O)NC(=O)[C@@H](C)NC3=O)nn2)C(C)C)cc1)C(C)C` [BCY10981, MMAE-PAB-(Dab-Val-Glu)-BCY3900], in data set [1], the half-life at 2 μM was 73.8 h. In data set [9], this molecule yielded a fraction unbound of 0.459. In data set [7], this molecule registered a fraction unbound of 0.417. In [2], the half-life at 2 μM was over 57.8 h. In [3], the “% Parent remaining … 0 h” value was found to be 100%; the “% Parent remaining … 1 h” value worked out at 0%; the “% Parent remaining … 2 h” value is 0%; the “% Parent remaining … with CatB, 4 h” value was determined as 0%. Moreover, in data set [3], the “% Parent remaining … 6 h” value is on record as 0%; the “% Parent remaining … 24 h” value is 0%; the half-life at 40 μM is under 0.2 h. This molecule also displayed a half-life at 2 μM in data set [4] (setting [10]) of over 57.8 h. Moreover, in data set [4] (setting [11]), the half-life at 2 μM is over 57.8 h. This molecule had a fraction unbound in [8] of 0.653. Besides, in [5], the C0 is 30.7 µg/mL, the distribution volume (Vd) is 0.15 L/kg, the clearance came out at 0.234 L/h/kg and the half-life is 0.6 h. Further, the fraction unbound in [6] is 0.288.
